According to patent US20060269548A1 (published 2006):
Blank lines part the entries; values can stand above or below the binder they belong to.

Experiments:
[1] = molecular target: T1, human VEGFR-2 immunoglobulin fusion protein (chimeric receptor protein immobilized on the biosensor chip) (human, UniProt P35968 20-764, limits assumed); experiment: BIAcore 2000 biosensor, receptor-Ig amine-coupled to CM5 chip, ligand injected
T1 construct: also called hVEGFR-2; not shown: immunoglobulin fusion part
T1 sequence (P35968 20-764 limits assumed, change not shown): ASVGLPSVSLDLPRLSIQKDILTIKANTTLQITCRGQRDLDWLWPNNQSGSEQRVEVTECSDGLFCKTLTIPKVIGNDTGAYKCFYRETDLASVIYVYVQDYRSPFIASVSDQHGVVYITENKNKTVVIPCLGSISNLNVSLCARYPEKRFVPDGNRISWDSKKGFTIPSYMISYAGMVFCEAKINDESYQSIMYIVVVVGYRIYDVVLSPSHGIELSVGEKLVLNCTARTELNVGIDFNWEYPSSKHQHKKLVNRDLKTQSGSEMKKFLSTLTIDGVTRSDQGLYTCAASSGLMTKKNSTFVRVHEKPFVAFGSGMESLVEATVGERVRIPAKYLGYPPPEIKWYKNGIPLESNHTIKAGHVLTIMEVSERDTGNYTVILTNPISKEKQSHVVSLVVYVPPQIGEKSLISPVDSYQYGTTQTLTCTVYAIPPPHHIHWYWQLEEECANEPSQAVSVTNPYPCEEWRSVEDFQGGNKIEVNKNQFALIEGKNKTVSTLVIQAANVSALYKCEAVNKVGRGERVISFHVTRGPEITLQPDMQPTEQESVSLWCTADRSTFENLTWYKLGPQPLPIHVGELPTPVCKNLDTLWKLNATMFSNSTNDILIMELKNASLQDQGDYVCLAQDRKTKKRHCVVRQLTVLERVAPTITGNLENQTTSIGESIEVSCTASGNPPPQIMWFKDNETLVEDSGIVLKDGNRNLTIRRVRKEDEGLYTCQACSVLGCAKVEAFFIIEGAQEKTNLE

[2] = molecular target: T2, human VEGFR-3-Ig (human, UniProt P35916 25-775); experiment: BIAcore 2000 biosensor, receptor-Ig on CM5 chip, ligand injected, 1:1 Langmuir global fit
T2 construct: extracellular domain; also called hVEGFR-3; soluble VEGFR-3; not shown: immunoglobulin fusion part
T2 sequence (looked up): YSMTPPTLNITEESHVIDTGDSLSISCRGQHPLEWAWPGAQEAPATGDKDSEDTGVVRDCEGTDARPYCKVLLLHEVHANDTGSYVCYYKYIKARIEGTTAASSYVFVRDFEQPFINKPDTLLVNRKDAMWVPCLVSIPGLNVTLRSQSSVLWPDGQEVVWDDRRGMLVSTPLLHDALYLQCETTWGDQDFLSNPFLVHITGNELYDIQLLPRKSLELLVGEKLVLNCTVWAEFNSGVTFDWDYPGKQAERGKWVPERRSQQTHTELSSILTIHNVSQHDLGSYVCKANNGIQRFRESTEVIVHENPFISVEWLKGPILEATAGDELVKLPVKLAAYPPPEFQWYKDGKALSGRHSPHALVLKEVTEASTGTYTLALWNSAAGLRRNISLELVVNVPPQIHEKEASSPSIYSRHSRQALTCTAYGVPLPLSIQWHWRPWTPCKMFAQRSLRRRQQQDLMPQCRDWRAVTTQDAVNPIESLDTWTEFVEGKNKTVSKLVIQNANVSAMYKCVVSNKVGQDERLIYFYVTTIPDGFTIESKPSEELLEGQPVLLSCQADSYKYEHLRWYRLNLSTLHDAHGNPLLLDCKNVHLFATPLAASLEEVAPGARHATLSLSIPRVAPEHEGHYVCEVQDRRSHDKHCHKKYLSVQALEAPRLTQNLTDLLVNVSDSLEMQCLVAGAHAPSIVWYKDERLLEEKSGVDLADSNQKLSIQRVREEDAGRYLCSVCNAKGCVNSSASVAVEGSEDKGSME

[3] = molecular target: T1, human VEGFR-2 immunoglobulin fusion …; experiment: as above
Procedure: Chimeric receptor proteins were immobilized onto a carboxymethylated dextran surface. Growth factors were injected over the surface at a flow rate of 20 μl/min at the indicated concentrations.
Following immobilization, residual activated ester groups were blocked by treatment with 1 M ethanolamine hydrochloride pH 8.5 followed by washing with 10 mM diethylamine to remove non-covalently bound material. […] Samples were diluted in running buffer (10 mM HEPES pH 7.4, 150 mM NaCl, 3.4 mM EDTA, 0.005% Tween 20).

binding result [1]: no binding | Kd [2]: 115 nM | koff [2]: 0.0004 s⁻¹ | kon [2]: 3500 M⁻¹ s⁻¹
B1: recombinant human VEGF-C156S (Thr103 to Ile225) (ligand)
chain: TEETIKFAAAHYNTEILKSIDNEWRKTQCMPREVCIDVGKEFGVATNTFFKPPSVSVYRCGGCCNSEGLQCMNTSTSYLSKTLFEITVPLSQGPKPVTISFANHTSCRCMSKLDVYRQVHSII
notes: also called hVEGF-C156S; VEGF-C56S

Kd [3]: 22 nM | koff [3]: 0.00123 s⁻¹ | kon [3]: 55000 M⁻¹ s⁻¹ | Kd [2]: 4.4 nM | koff [2]: 0.000605 s⁻¹ | kon [2]: 136000 M⁻¹ s⁻¹
B2: recombinant human VEGF-C (Thr103 to Leu215) (ligand, UniProt P49767 103-215, looked up)
chain: TEETIKFAAAHYNTEILKSIDNEWRKTQCMPREVCIDVGKEFGVATNTFFKPPCVSVYRCGGCCNSEGLQCMNTSTSYLSKTLFEITVPLSQGPKPVTISFANHTSCRCMSKL
notes: range 103-215; Produced and purified as in Joukov et al. 1997; also called hVEGF-C; wild type VEGF-C
